EC50 of cAMP production (EPAC BRET sensor), HEK293 cells expressing mMC1R, 3 min and EC50 of cAMP production (EPAC BRET sensor), HEK293 cells expressing mMC4R, 3 min data for 1 substance are collected here from paper doi:10.1101/2025.08.08.669345.

In test [1] the target is mouse melanocortin 1 receptor (mouse) (UniProt Q01727).
Test [2] concerns the target mouse melanocortin 4 receptor (mouse) (UniProt P56450).
UniProt P56450, sequence (P56450 whole entry): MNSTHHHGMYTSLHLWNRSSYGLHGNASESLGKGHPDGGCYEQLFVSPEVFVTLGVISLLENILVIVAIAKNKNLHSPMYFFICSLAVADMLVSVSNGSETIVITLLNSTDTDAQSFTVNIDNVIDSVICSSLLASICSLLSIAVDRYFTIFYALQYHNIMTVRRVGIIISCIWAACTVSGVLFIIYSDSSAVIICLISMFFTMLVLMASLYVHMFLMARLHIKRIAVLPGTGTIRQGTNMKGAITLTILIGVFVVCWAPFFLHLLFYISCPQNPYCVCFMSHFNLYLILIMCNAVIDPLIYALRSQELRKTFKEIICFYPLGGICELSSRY

UniProt Q01727, sequence (Q01727 whole entry): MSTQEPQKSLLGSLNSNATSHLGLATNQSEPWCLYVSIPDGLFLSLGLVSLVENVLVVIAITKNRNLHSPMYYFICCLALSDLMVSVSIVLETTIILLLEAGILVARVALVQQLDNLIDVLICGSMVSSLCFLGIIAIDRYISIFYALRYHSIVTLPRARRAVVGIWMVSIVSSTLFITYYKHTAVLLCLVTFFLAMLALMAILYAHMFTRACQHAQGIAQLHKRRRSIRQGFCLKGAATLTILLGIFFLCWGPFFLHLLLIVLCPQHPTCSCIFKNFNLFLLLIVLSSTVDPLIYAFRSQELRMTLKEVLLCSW

Substance “α-melanocyte-stimulating hormone (peptide)” yielded an EC50 of cAMP production (EPAC BRET sensor), HEK293 cells expressing mMC1R, 3 min in test [1] of 4.8 nM. The substance further registered an EC50 of cAMP production (EPAC BRET sensor), HEK293 cells expressing mMC4R, 3 min in test [2] of 11.5 nM.
